In patent US20210030857A1 (NGM BIOPHARMACEUTICALS, published 2021):
Where “and” joins values, the source holds several entries; their conditions need not be identical. Identical values can stand only once.

Legend:
[1] = biological target: T1, human beta klotho mutant H657A on HEK-293T cells (human, UniProt Q86Z14 1-1044); assay: shotgun alanine mutagenesis, FACS on HEK-293T cells, antibody 0.5 µg/ml
T1 sequence: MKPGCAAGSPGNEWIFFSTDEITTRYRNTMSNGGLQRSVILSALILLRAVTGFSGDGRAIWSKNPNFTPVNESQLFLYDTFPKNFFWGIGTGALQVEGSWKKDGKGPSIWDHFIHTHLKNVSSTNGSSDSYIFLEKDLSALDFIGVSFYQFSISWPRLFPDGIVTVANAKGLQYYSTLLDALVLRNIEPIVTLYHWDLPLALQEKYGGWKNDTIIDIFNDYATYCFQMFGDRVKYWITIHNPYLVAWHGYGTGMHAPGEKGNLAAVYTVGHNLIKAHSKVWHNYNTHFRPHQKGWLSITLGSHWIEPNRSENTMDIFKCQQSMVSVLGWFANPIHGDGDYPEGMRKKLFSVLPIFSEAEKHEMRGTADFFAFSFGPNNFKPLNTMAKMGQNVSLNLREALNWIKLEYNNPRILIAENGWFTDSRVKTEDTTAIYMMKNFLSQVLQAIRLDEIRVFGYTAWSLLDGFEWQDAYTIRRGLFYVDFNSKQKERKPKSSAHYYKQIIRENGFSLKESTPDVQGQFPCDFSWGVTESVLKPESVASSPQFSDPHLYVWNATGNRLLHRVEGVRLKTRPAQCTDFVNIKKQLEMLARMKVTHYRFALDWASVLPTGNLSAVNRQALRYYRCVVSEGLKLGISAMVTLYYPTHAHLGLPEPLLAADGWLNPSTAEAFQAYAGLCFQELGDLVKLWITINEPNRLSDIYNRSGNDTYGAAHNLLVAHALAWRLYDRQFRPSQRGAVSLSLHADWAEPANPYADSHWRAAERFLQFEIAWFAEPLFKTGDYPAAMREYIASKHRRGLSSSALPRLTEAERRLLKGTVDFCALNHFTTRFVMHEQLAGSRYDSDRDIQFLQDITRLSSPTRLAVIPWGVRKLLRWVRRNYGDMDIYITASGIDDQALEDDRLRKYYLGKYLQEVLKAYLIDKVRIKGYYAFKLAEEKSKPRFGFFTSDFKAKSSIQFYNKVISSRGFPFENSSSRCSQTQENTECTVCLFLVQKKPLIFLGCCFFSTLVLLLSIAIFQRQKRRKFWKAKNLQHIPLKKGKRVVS
Experimental: In order to further identify specific binding residues within human beta klotho KL2 domain, shotgun mutagenesis was used to separately mutate individual residues of the KL2 domain of human beta klotho to an alanine (e.g., residues F508A-L1008A). […] For example, screening of the beta klotho mutant proteins was conducted at a concentration of 0.5 μg/ml for the humanized 5H23 antibody, 1.0 μg/ml for the Fab fragment, and 2.0 μg/ml for a positive control polyclonal anti-beta klotho antibodies.
The resulting mapping identified three specific binding residues, H657, Y701 and R703, which were negative for binding by the humanized 5H23 antibody, but were positive for the control polyclonal anti-beta klotho antibodies. These residues represented amino acids whose side changes made the highest energetic contributions to the antibody-epitope interation as shown in Table 31. The locations of the three identified residues were modeled by showing them (dark spheres) at the equivalent positions on human cytosolic beta-glucosidase (PDB ID #2JFE; Tribolo et al., J. Mol. Biol. 370, 964-975 (2007)), identified by BLAST alignment of the two proteins as shown in FIG. 6.

[2] = biological target: T2, human beta klotho protein (soluble, used in Biacore) (human, UniProt Q86Z14 53-997, limits assumed); assay: Biacore SPR (as in Example 2)
T2 construct: also called HuKLB; huKLB
T2 sequence: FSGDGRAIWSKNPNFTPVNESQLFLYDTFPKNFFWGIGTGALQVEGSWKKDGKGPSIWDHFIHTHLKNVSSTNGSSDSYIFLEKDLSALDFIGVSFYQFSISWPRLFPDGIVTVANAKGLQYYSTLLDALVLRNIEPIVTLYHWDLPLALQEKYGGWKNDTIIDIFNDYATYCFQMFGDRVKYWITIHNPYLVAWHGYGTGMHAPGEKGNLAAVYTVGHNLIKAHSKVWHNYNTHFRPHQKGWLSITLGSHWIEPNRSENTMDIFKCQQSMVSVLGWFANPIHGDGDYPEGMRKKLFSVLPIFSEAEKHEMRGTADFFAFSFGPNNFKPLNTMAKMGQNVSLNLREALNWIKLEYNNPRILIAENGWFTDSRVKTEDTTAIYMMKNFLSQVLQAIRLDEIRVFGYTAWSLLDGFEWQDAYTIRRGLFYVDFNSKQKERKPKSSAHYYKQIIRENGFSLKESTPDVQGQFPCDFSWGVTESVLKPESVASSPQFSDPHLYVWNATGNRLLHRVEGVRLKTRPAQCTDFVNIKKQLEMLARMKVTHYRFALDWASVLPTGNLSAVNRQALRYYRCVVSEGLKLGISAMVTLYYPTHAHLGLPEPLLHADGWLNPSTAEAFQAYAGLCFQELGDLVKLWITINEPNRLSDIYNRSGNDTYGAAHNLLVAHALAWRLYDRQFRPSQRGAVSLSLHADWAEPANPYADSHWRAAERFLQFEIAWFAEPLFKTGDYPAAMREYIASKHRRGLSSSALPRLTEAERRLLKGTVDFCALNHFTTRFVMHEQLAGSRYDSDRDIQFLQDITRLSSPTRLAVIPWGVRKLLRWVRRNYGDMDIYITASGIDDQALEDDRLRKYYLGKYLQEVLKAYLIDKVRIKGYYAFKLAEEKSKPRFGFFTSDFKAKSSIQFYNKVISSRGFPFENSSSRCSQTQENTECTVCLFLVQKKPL

Kd [2]: 0.64 nM and 0.58 nM
B1: humanized 5H23 antibody (VH SEQ ID NO: 271 and VL SEQ ID NO: 276) (antibody, V domains shown)
VH: QVQLQQSGAEVKKPGASVKVSCKASGYTFTSYDINWVRQAPGQGLEWIGWIYPGDGSTKYNEKFKGKATITRDTSASTAYMELSSLRSEDTAVYFCARSDYYGSRSFAYWGQGTLVTVSS
VL: DIVMTQSPDSLAVSLGERATINCRASKSVSTSGYVYMHWYQQKPGQPPKLLIYLASYLESGVPDRFSGSGSGTDFTLTISSVQAEDVAVYYCQHSRDLTFPFGGGTKLEIK
notes: also called h5H23; h5H23 (Prep 1)
Binding Reactivity (% WT) [1]: 16.9 % WT
